Laboratory results from the supplement of paper PMC9170038.

How the values were obtained:
MS2 coat protein [1] = experiment: apparent KD of MS2 coat protein, switch OFF state (with FMN for OFF switches, without FMN for ON switches); designed switch direction (-1 OFF switch, 1 ON switch): 1; higher = weaker reporter binding; conditions: FMN input: 0 or 200 uM; Eterna round: R93 (includes R88 designs)
In short: (§1)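 Apparent KD stands for the median, per design, of fits to normalised cluster binding curves. The curves came from titrating on-chip-transcribed RNA switches on Illumina sequencing clusters with SNAP-549-labelled MS2 coat protein, twofold from 0.7 or 1.5 nM to 3 µM. Buffer was 100 mM Tris-HCl pH 7.5, 80 mM KCl, 4 mM MgCl2, without or with constant ligand.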

MS2 coat protein [2] = experiment: apparent KD of MS2 coat protein, switch ON state; designed switch direction (-1 OFF switch, 1 ON switch): 1; higher = weaker reporter binding; conditions: FMN input: 0 or 200 uM; Eterna round: R93 (includes R88 designs)
In short: as §1

Sequence	apparent KD of MS2 coat protein (MS2 coat protein [1])	apparent KD of MS2 coat protein (MS2 coat protein [2])
AAUCCAAAUAGUUAGGAUAUGGGAAUUAAGACAUGAGGAUCACCCAUGUCAUUAAAACAAGUUAACCAGAAGGGACAGGGUGAAA [JR_SS002_Sub208]	0.0266 µM	0.0147 µM
AAUCCAACUAGUCAGGAUAUCAGGCGUAAGACAUGAGGAUCACCCAUGUCCUUAGUACAAGUAACUGAGAAGGGACAGGGCGACC [JR_SS002_Sub410]	0.0395 µM	0.0749 µM
AAUGAACAUGAGGAUCACCCAUGUUCUAAUAGUUGAGGAUAUGUGGGUGAAAAUAGCACGGCAGAAGGCGAGUGUA [SameState1 Malc#19]	0.0807 µM	0.101 µM
ACAAAACAUGAGGAUCACCCAUGUAUAAAUAUAACAGGAUAUGGGACUGCCGAUUAGGCACCAGAAGGGUUUUCAC [Atearve]	0.0273 µM	0.0208 µM
ACAAAACAUGAGGAUCACCCAUGUCGACUAAAUCAAGGAUAUGGGAAUGCGAAAGCAAAGCCAGAAGGUGAGGUCC [Xeorarbiar]	0.185 µM	0.294 µM
ACAUGCUGCCGGCAGGAUAUCGCUUGGCGGACAUGAGGAUCACCCAUGUGAGAAAGUCGCGCGCGCGAGAAGGGCCAUGGUAUCAG [SameState2_Neo]	0.0611 µM	0.0893 µM
ACGGUCAAGUGUGAGGAUAUCCAGGCUCCCACAUGAGGAUCACCCAUGUCUUAAAGGGCGUAAAGGGAGAAGGUACGAACGCCAC [Vesolees]	0.0453 µM	0.0332 µM
AGAAAACAUGAGGAUCACCCAUGUAGAAAUAUGGGAGGAUAUACAAAGACGAAAGUCAAGGUAGAAGGCCUAAAGA [Mat - Same State 1 - Meechl mod - D124]	0.0999 µM	0.02 µM
AGAAAACAUGAGGAUCACCCAUGUAGGAAUAUGGGAGGAUAUACAAAGACGAAAGUCAGAGUAGAAGGCCUAAGAA [salish99-SS1-087]	0.0818 µM	0.0241 µM
AGAAAACAUGAGGAUCACCCAUGUGACAAUAUGGGAGGAUAUACAAAGACGAAAGUCGAAGUAGAAGGCCUAAAGA [Garnet 52]	0.0697 µM	0.0261 µM
AGAAAUAAAACACAGGAUAUCCAAAAGAAAACAUGAGGAUCACCCAUGUAAAAGAAAAUAAAAUGGGAGAAGGGUGAAAAUAAAG [Breaking Jandersonlee's winner (80%)]	0.0526 µM	0.038 µM
AGAAAUAAAACACAGGAUAUCCAAAAGAAAACAUGAGGAUCACCCAUGUAAAGAAAAUAAAAAUGGGAGAAGGGUGAAAAUAAGA [Mat - Same State 2 - JL mod - D15]	0.0315 µM	0.0199 µM
AGAAAUAAAAGAGAGGAUAUCCAAAAGAAAACAUGAGGAUCACCCAUGUAAAAGAAAAUAAAAUGGGAGAAGGCUCAAAAUAAAGA [Helter Skelter 2]	0.0697 µM	0.0216 µM
AGAAAUAAAAGAGAGGAUAUCCAAAAUAAAACAUGAGGAUCACCCAUGUGUACGAAAGUACAAUGGGAGAAGGCUCAAAAUAAAG [80% More Helter Skelter 2 + Hairpin]	0.00654 µM	1.28 µM
AGAAAUAAAAGGCAGGAUAUCCAAAAGAAAACAUGAGGAUCACCCAUGUAAAAGAAAAUAAAGUGGGAGAAGGGCCAAAAUAAAG [My design (73%) + Space bases]	0.0365 µM	0.0117 µM
AGAAAUAAAAUGGAGGAUAUCCAAAAGAAAACAUGAGGAUCACCCAUGUAAAAGAAAAUAAAAUGGGAGAAGGCCACAAAUAAAG	0.0314 µM	0.0268 µM
AGAAAUAAAUGAGAGGAUAUCCUAAAGAAAACAUGAGGAUCACCCAUGUAAAAGAAAAUAAAAUGGGAGAAGGCUCAUAAUAAAG [Starry Same State 2 (jandersonlee round 1 mod)]	0.0355 µM	0.0208 µM
AGCACGGGAUUGGAGGAUAUGUUGUUUGCAACAUGAGGAUCACCCAUGUCUGAGGCUGAAAAGCAGCAGAAGGCCGAUACAACCA [SS2-1.2]	0.367 µM	0.0438 µM
AGCACGUGAUUGGAGGAUAUGCAGUAAGCAACAUGAGGAUCACCCAUGUCUGACCCUGAAAACCAGCAGAAGGCCGAUACAACCA [SS2-1.7]	0.013 µM	0.0102 µM
AGCACGUGAUUGGAGGAUAUGUUGUAAGCAACAUGAGGAUCACCCAUGUCUGAGGCUGAAAAGCAGCAGAAGGCCGAUACAACCA [SS2-1.3]	0.11 µM	0.0372 µM
AGGAAACAUGAGGAUCACCCAUGUAAAAAAAUGGGAGGAUAUACUAGAAGAAACAAAAUAGUAGAAGGCCUAAAAA [75%, Ex sub1, 27]	0.0749 µM	0.0189 µM
AGGAAACAUGAGGAUCACCCAUGUAAAAAUAUAGGAGGAUAUGCGAAAAGAAACAAAGAAGCAGAAGGCUUAAAAA [75%, Ex sub1, 22]	0.0208 µM	0.0131 µM

Sequence	apparent KD of MS2 coat protein (MS2 coat protein [1])	apparent KD of MS2 coat protein (MS2 coat protein [2])
AGGAAACAUGAGGAUCACCCAUGUAAAAAUAUGGAAGGAUAUGGAAACACGAAAGUGAAACCAGAAGGUUCAAAAA [77%, Mat - Mod of Eli, 22]	0.0247 µM	0.0185 µM
AGGAAACAUGAGGAUCACCCAUGUAAGAUAUAUACAGGAUAUGCGAAAAGAAACAAAGAAGCAGAAGGGUAAAAAA [75%, Ex sub1, 13]	0.0255 µM	0.018 µM
AGGAAACAUGAGGAUCACCCAUGUAUAAAAAUGGAAGGAUAUACUAAGACGAAAGUCAUAGUAGAAGGUUCAAAAA [76%, Meechl, 9]	0.0211 µM	0.0131 µM
AGGAGACAUGAGGAUCACCCAUGUGAGAAGAGGCGAGGAUAUCGAAAAAAAAAAAGAAAACGAGAAGGCGCGAGAA [salish99-SS1-014]	0.0599 µM	0.244 µM
AGGAGACAUGAGGAUCACCCAUGUGAGAAGAGGCGAGGAUAUCGAAAGAAAGAAAGAAAACGAGAAGGCGCGAGAA [salish99-SS1-016]	0.0428 µM	0.028 µM
AGGAGACAUGAGGAUCACCCAUGUGAGAAGAGGCGAGGAUAUCGAAAGAAAGAAGAGAAACGAGAAGGCGCGAGAC [salish99-SS1-029]	0.0336 µM	0.0154 µM
AUAAAACAUGAGGAUCACCCAUGUAGAAAUAUGGGAGGAUAUACUAGAUCGAAAGAUCUAGUAGAAGGCCUUUAUG [JL Mod of Eli 5]	0.0493 µM	0.0454 µM
AUAAAACAUGAGGAUCACCCAUGUAGACACGAUGGAGGAUAUACUAGAUCGAAAGAUCUAGUAGAAGGCCGACGUA [Mat - Same State 1 - JL mod - D95]	0.0226 µM	0.0184 µM
AUAAAAGAAGCGAAGGAUAUCCAAAAUCCAACAUGAGGAUCACCCAUGUAAAGAAAGAAAAAAUGGGAGAAGGUCGCAAAGAAUA [73%, More Fisker Same State 2, D3, 11]	0.0313 µM	0.0135 µM
AUAAAAUAAAAGGAGGAUAUCCUUAAUAAAACAUGAGGAUCACCCAUGUAAAAAAUAAUAAAAUGGGAGAAGGCCUAAAAUAAAU [SS2 M 26]	0.0642 µM	0.0242 µM
AUAAAUAAAAGAGAGGAUAUCCAAAAUAAAACAUGAGGAUCACCCAUGUAAAAUAAAAUAAAAUGGGAGAAGGCUCAAAAUAAAU [SS2 M 2]	0.0721 µM	0.0216 µM
AUAAAUAAAAUCAAGGAUAUCCAAAAAAAAACAUGAGGAUCACCCAUGUAAAAGAAAAUAAAAUGGGAGAAGGUGAAAAAUAAAU [SS2 M 6]	0.068 µM	0.0394 µM
AUAUAUAAAAGAUAGGAUAUACUAAAAUAAACAUGAGGAUCACCCAUGUAAAAAAAGAAACUCAUGUAGAAGGAUCAUAUAUAUA [ss2 7th]	0.246 µM	0.0465 µM
AUAUAUAUAAGGAAGGAUAUCCAAAAAUAAACAUGAGGAUCACCCAUGUCCAUAAAGAAUAAAUGGGAGAAGGUCCAUAUAUAUA [77%, More Tesla, 9]	0.123 µM	0.0242 µM
AUGAAAGUAACGCAGGAUAUCCAGGAUACAACAUGAGGAUCACCCAUGUACAUACGAACGUAUAAGGAGAAGGGUGGAUGAUCUUC [ss2-3]	0.0482 µM	0.0567 µM
CAGAGACAUGAGGAUCACCCAUGUAGGAUUAUGGGAGGAUAUACAAAGACGAGAGUCAGAGUAGAAGGCCUAGGCC [salish99-ss1-145]	0.0432 µM	0.0297 µM
CAUCACGCGCCUAAGGAUAUGUCUCACAAGACAUGAGGAUCACCCAUGUAGAAUAAAUAAAUGAUGCAGAAGGUGGAGCGCAUGC [Gerixeza]	0.517 µM	0.134 µM
CAUCAUGCGCCUAAGGAUAUGUCUCACAAGACAUGAGGAUCACCCAUGUAGAAUAAAUAAACGAUGCAGAAGGUGGAGCGCAUGA [Cexeri]	0.222 µM	0.0402 µM
CAUCAUGCGCCUAAGGAUAUGUCUCACAAGACAUGAGGAUCACCCAUGUAGAAUAAAUAAAUGAUGCAGAAGGUGGAGCGCAUAC [Beusesce]	0.507 µM	0.0619 µM
CGAAGACAUGAGGAUCACCCAUGUCGUCGUAACAGAGGAUAUGGGAACGCCAAGGGCGCAUCAGAAGGCUGAAAAC [Gediaton]	0.031 µM	0.0162 µM
CGAGUACAUGAGGAUCACCCAUGUUAUGAAUUGUCAGGAUAUGGGUAGAGGUGACAUGCGCCAGAAGGGACGUCUG [JR_SS001_Sub1005]	0.0528 µM	0.194 µM
